{"source": "patent US20250250335A1", "binders": {"B1": {"name": "Antibody 7 (antibody, V domains shown)", "VH": "QIQLVQSGPELKKPGETVKISCKASGYTFTDYGMNWVKQAPGKGLKWMGWINTYTGEPTYPDDFKGRFAFSLETSATTAYLQINNLKNEDTATYFCSRGDLLVRLDNWGQGTTLTVSS", "VL": "DIQMTQSPSSLSASLGGKVTITCKASQDINKYISWYQHKPGKGPRLLIHYTSTLQSGIPSRFSGSGSGRDYSFSISNLEPEDIATYYCLQYDYLRTFGGGTKLEIK"}}, "biological_target": "T1, mouse CEACAM5 (mouse) (UniProt Q3UKK2)", "T1 sequence (looked up)": "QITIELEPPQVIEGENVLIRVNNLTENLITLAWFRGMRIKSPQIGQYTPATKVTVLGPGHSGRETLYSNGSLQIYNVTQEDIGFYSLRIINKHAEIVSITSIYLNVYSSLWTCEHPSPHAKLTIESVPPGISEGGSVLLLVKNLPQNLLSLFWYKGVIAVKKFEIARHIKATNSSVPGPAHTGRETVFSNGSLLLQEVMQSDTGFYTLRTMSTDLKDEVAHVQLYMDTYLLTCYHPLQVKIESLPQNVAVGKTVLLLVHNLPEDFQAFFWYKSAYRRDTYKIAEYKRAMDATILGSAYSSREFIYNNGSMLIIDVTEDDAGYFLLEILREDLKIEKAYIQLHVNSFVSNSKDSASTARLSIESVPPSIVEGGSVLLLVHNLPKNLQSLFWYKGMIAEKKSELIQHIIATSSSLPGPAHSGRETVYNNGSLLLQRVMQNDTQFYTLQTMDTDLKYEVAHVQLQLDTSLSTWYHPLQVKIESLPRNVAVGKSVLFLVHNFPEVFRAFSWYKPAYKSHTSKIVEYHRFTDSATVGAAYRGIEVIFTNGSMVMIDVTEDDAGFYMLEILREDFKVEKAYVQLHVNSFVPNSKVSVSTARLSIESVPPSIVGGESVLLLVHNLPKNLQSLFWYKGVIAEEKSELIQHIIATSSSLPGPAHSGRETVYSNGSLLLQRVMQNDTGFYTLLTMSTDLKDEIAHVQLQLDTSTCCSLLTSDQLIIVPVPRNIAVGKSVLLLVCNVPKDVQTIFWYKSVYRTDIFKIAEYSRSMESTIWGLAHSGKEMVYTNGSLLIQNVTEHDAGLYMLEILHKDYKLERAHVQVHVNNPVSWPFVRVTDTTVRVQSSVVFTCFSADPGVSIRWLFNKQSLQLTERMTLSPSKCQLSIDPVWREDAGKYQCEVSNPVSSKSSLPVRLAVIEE", "test": "ELISA on coated protein, OD450", "note": "“And” between values parts separate entries of the source, which are not always exact repeats. Identical values can stand only once.", "data": [{"binder": "B1", "values": [{"measurement": "OD", "result": "0.31 OD and 0.24 OD"}]}]}
